Laboratory results taken from patent US20120321591A1 (COVX TECHNOLOGIES IRELAND, published 2012).
Bridges are numbered along the chain shown (N, C = ends). Where no end group is shown, it is not given here. [ ]: non-standard residue; d: D form. 0P linker = not defined here; Nle = CCCC[C@H](N)C(=O)O

B1: Compound 4033, peptide plus linker (T) (peptide)
peptide: QK(Ac)YQPLDEK(0P linker)DETLYDQFMLQQG
modifications: reading uncertain; also: N-terminal acyl cap, C-terminal amino cap, printed as Q(Kac)Y QPL DEK(0P) DET LYD QFM LQQ G
notes: also called 4033 T
B2: Compound 4059, peptide plus linker (T) (peptide)
peptide: QRYQPLDELDKTLYDQFMLQQG-NH2
modifications: not fully specified (residue 11, N-terminus); printed as QRY QPL DEL DK(0P)T LYD QFM LQQ G; also: N-terminal acyl cap
notes: also called 4059 T
B3: Compound 4027, peptide plus linker (T) (peptide)
peptide: QKYQPLDELDK(0P linker)TLYDQFMLQQG-NH2
modifications: reading uncertain; also: N-terminal acyl cap, printed as QKY QPL DEL DK(0P)T LYD QFM LQQ G
notes: also called 4027 T
B4: Compound 4060, peptide plus linker (T) (peptide)
peptide: QHYQPLDELDKTLYDQFMLQQG-NH2
modifications: not fully specified (residue 11, N-terminus); printed as QHY QPL DEL DK(0P)T LYD QFM LQQ G; also: N-terminal acyl cap
notes: also called 4060 T

Target: T1, recombinant human VEGF165 (human, UniProt P15692-4 27-191)
T1 construct: also called rhVEGF165
T1 sequence (P15692 other isoform, or with tags, fused parts or gaps limits assumed): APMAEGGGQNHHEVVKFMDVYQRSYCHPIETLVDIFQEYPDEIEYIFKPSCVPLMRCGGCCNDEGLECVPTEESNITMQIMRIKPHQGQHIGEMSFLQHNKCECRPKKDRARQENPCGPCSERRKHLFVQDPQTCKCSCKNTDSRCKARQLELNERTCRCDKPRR
Test: competition ELISA: VEGF165 binding to coated VEGFR2/Fc

Ac-VEPNCDIHVMWVWECFERL[dL]K(Ac)-NH2 (disulfide 5-15) [[VEGF-Peptide] SEQ ID NO:60] and Ac-VEPNCDIHVMWVWECFERLMK-NH2 (disulfide 5-15 (inferred)) [[VEGF-Peptide] SEQ ID NO:62] are the same in IC50: 0.025 µM for the first, 0.025 µM for the second.

First: Ac-VEPNCDIHVMWVWECFERLVK-NH2 (disulfide 5-15 (inferred)) [[VEGF-Peptide] SEQ ID NO:48]
Second: Ac-VEPNCDIHVMWVWVCFERLMK-NH2 (disulfide 5-15 (inferred)) [[VEGF-Peptide] SEQ ID NO:38]
The IC50 of the first is 2.2-fold lower: 0.0424 µM for the first, 0.0926 µM for the second. The first is the more potent here.

Ac-VEPNCDIHVMWVWECFERLYK-NH2 (disulfide 5-15 (inferred)) [[VEGF-Peptide] SEQ ID NO:58] and Ac-VEPNCDIHVMWVWECFERLIK-NH2 (disulfide 5-15 (inferred)) [[VEGF-Peptide] SEQ ID NO:57] are within 1.5-fold of each other in IC50: 0.0251 µM for the first, 0.0254 µM for the second.

Going from Ac-VEPNCDIHVMWVWECFERLLK-NH2 (disulfide 5-15 (inferred)) [[VEGF-Peptide] SEQ ID NO:67] to Ac-VEPNCDIHVMWVWECFERLMR-NH2 (disulfide 5-15 (inferred)) [[VEGF-Peptide] SEQ ID NO:49], the IC50 rises from 0.0101 µM to 0.0345 µM (3.4-fold). The first is the more potent here.

Going from Ac-VEPNCDIHVMWVWECFERLYG-NH2 (disulfide 5-15 (inferred)) [[VEGF-Peptide] SEQ ID NO:47] to Ac-VEPNCDIHVMWVWECFERLY-NH2 (disulfide 5-15 (inferred)) [[VEGF-Peptide] SEQ ID NO:41], the IC50 rises from 0.0433 µM to 0.0699 µM (1.6-fold). The first is the more potent here.

Compared with Ac-VEPNCDIHVMWVWECFERL[Nle]K-NH2 (disulfide 5-15) [[VEGF-Peptide] SEQ ID NO:54], Ac-VEPNCDIHVMWVWECFERLYGIF-NH2 (disulfide 5-15 (inferred)) [[VEGF-Peptide] SEQ ID NO:40] is 2.7-fold higher in IC50: 0.0286 µM for the first, 0.0783 µM for the second.

Going from Ac-VEPNCDIHVMWVWECFERLYGPF-NH2 (disulfide 5-15 (inferred)) [[VEGF-Peptide] SEQ ID NO:77] to Ac-VEPNCDIHVMWVWECFERLYGVQ-NH2 (disulfide 5-15 (inferred)) [[VEGF-Peptide] SEQ ID NO:74], the IC50 rises from 0.0018 µM to 0.004 µM (2.2-fold). The first is the more potent here.

Compared with Ac-VEPNCDIHVMWVWECFERLYGLE-NH2 (disulfide 5-15 (inferred)) [[VEGF-Peptide] SEQ ID NO:75], Ac-VEPNCDIHVMWVWECFERLMGLT-NH2 (disulfide 5-15 (inferred)) [[VEGF-Peptide] SEQ ID NO:59] is 8.3-fold higher in IC50: 0.003 µM for the first, 0.025 µM for the second. The first is the more potent here.

Ac-VEPNCDIHVMWVWECFERLSGGG-NH2 (disulfide 5-15 (inferred)) [[VEGF-Peptide] SEQ ID NO:45] and Ac-VEPNCDIHVMWVWECFERLYGIL-NH2 (disulfide 5-15 (inferred)) [[VEGF-Peptide] SEQ ID NO:50] are within 1.5-fold of each other in IC50: 0.051 µM for the first, 0.0344 µM for the second.

First: Ac-VEPNCDIHVMWVWECFERLYGLS-NH2 (disulfide 5-15 (inferred)) [[VEGF-Peptide] SEQ ID NO:71]
Second: Ac-VEPNCDIHVMWVWECFERLYGEF-NH2 (disulfide 5-15 (inferred)) [[VEGF-Peptide] SEQ ID NO:70]
The IC50 of the first is 1.7-fold lower: 0.0054 µM for the first, 0.0093 µM for the second. The first is the more potent here.

Ac-VEPNCDIHVMWVWECFERLYGGG-NH2 (disulfide 5-15 (inferred)) [[VEGF-Peptide] SEQ ID NO:61] and Ac-VEPNCDIHVMWVWECFERLYGGF-NH2 (disulfide 5-15 (inferred)) [[VEGF-Peptide] SEQ ID NO:56] are within 1.5-fold of each other in IC50: 0.0236 µM for the first, 0.0262 µM for the second.

Going from Ac-VEPNCDIHVMWVWECFERLMRLT-NH2 (disulfide 5-15 (inferred)) [[VEGF-Peptide] SEQ ID NO:46] to Ac-VEPNCDIHVMWVWECFERLYGWG-NH2 (disulfide 5-15 (inferred)) [[VEGF-Peptide] SEQ ID NO:42], the IC50 rises from 0.0441 µM to 0.0682 µM (1.5-fold).

First: Ac-VEPNCDIHVMWVWECFERLFKEA-NH2 (disulfide 5-15 (inferred)) [[VEGF-Peptide] SEQ ID NO:53]
Second: Ac-VEPNCDIHVMWVWVCFERLYGGG-NH2 (disulfide 5-15 (inferred)) [[VEGF-Peptide] SEQ ID NO:43]
The IC50 of the first is 2.1-fold lower: 0.0314 µM for the first, 0.066 µM for the second. The first is the more potent here.

Going from Ac-VEPNCDIHVMWVWECFERLYGLY-NH2 (disulfide 5-15 (inferred)) [[VEGF-Peptide] SEQ ID NO:44] to Ac-VEPNCDIHVMWVWECFERLYGPL-NH2 (disulfide 5-15 (inferred)) [[VEGF-Peptide] SEQ ID NO:76], the IC50 falls from 0.0546 µM to 0.0023 µM (24-fold). The second is the more potent here.

Ac-VEPNCDIHVMWVWECFERLYGPW-NH2 (disulfide 5-15 (inferred)) [[VEGF-Peptide] SEQ ID NO:66] and Ac-VEPNCDIHVMWVWECFERLMREL-NH2 (disulfide 5-15 (inferred)) [[VEGF-Peptide] SEQ ID NO:63] are within 1.5-fold of each other in IC50: 0.0187 µM for the first, 0.024 µM for the second.

Compared with Ac-VEPNCDIHVMWVWECFERLMKEL-NH2 (disulfide 5-15 (inferred)) [[VEGF-Peptide] SEQ ID NO:65], Ac-VEPNCDIHVMWVWECFERLYGG-NH2 (disulfide 5-15 (inferred)) [[VEGF-Peptide] SEQ ID NO:52] is 1.8-fold higher in IC50: 0.018 µM for the first, 0.0323 µM for the second. The first is the more potent here.

Compared with Ac-VEPNCDIHVMWVWECFERLYGL-NH2 (disulfide 5-15 (inferred)) [[VEGF-Peptide] SEQ ID NO:72], Ac-VEPNCDIHVMWVWECFERL-NH2 (disulfide 5-15 (inferred)) [[VEGF-Peptide] SEQ ID NO:64] is 5-fold higher in IC50: 0.0048 µM for the first, 0.024 µM for the second.

With Ac-VEPNCDIHVMWVWECFERLLK(Ac)-NH2 (disulfide 5-15) [[VEGF-Peptide] SEQ ID NO:68] the IC50 was 0.01 µM.

Target: T2, human angiopoietin-2 protein (human, UniProt O15123 19-496)
T2 construct: also called Ang-2; Ang2
T2 sequence (looked up): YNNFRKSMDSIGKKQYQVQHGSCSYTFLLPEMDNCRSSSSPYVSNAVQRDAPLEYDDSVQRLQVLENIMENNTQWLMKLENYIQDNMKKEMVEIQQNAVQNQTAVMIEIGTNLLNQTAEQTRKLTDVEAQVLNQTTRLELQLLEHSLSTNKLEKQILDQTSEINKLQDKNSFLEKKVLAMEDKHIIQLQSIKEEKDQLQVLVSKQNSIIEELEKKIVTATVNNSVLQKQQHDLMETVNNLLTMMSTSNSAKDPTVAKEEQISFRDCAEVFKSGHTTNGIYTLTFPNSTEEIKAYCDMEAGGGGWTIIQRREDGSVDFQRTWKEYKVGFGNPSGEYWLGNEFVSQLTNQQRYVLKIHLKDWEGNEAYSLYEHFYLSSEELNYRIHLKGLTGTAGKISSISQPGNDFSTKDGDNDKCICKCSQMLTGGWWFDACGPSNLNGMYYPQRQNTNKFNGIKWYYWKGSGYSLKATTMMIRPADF
Test: competitive ELISA: Tie-2-Fc binding to coated Ang-2; T
Procedure: Plates were washed three times with washing buffer (0.1% Tween 20, PBS, pH 7.4) and blocked with Superblock (Scytek), […] at room temperature (“RT”) for 1 hour. […] Plates were washed 3 times with washing buffer. […] Following incubation, 50 ul of 1:5,000 dilution of goat anti-mouse IgG-HRP in Superblock was then added and incubated at RT for one hour. After washing 3 times, […] was added, and incubated for 3-5 minutes. Color development was monitored and stopped with 25 μl of 2 M H₂SO₄. OD450 nm with a correction wavelength of 540 nm was measured.

Going from B1 to QXYQPLDELDKTIYDQFMLQQG (N-terminal acyl cap; C-terminal amino cap; Kac 2; 0P linker on K11, also called 4036 T) [Compound 4036, peptide plus linker (T)], the IC50 rises from 0.37 µM to 2.41 µM (6.5-fold). The first is the more potent here.

Compared with QXYQPLDEIDKTLYDQFMLQQG (N-terminal acyl cap; C-terminal amino cap; Kac 2; 0P linker on K11, also called 4037 T) [Compound 4037, peptide plus linker (T)], QXYQPLDELDKTLFDQFMLQQG (N-terminal acyl cap; C-terminal amino cap; Kac 2; 0P linker on K11, also called 4044 T) [Compound 4044, peptide plus linker (T)] is 34-fold lower in IC50: 1.27 µM for the first, 0.0369 µM for the second. The second is the more potent here.

First: QKYQPLDELDKTLYDQFMLQQG-NH2 (not fully specified (N-terminus), also called 4026 T) [Compound 4026, peptide plus linker (T)]
Second: B2
The IC50 of the first is 5.5-fold lower: 0.0323 µM for the first, 0.177 µM for the second.

Compared with B3, B4 is 7.4-fold higher in IC50: 0.029 µM for the first, 0.214 µM for the second.

QXYQPLDELDKTLYDQFMLQQG (N-terminal acyl cap; C-terminal amino cap; Kac 2; 4P linker on K11, also called 4024 T) [Compound 4024, peptide plus linker (T)] gave an IC50 of 0.207 µM.
